For the experiment, the target named is T1, Aurora-A kinase (Aur-A) peptide on HLA-A*02:01 (human).
T1 peptide: YLILEYAPL
Description: multimer staining.

We go through 1 molecule from patent US20120009162A1 (published 2012).

B1: TCR of the Aur-A-specific CTL clone AUR-1 (SEQ ID NOs 1 and 2) (TCR, V domains shown)
Valpha: AQSVAQPEDQVNVAEGNPLTVKCTYSVSGNPYLFWYVQYPNRGLQFLLKYITGDNLVKGSYGFEAEFNKSQTSFHLKKPSALVSDSALYFCAVRDSNSNDYKLSFGAGTTVTVRA
Vbeta: DAGITQSPRHKVTETGTPVTLRCHQTENHRYMYWYRQDPGHGLRLIHYSYGVKDTDKGEVSDGYSVSRSKTEDFLLTLESATSSQTSVYFCAISESSFAQPMNTEAFFGQGTRLTVV
As to B1, the binding result is recorded as “recognises”.
